The record followed here is article PMC7948397, “A novel soluble complement receptor 1 fragment with enhanced therapeutic potential” (The Journal of Biological Chemistry, 2020).

The target of assay [1] is T1, CR1 (soluble analyte of the reverse SPR experiment; construct not named) (human, UniProt P17927 42-1971).
T1 construct: human complement receptor 1, soluble
As to the kind of experiment: SPR; reverse format: C3b or C4b immobilised by amine coupling (230 RU, only 20% active), CR1 as analyte; apparent affinities; data not shown. The note with it: both partners purified.

The target in a further assay is T2, plasma-derived human C3b (human, UniProt P01024 23-667; P01024 749-1663).
T2 construct: human complement C3, beta chain; human complement C3b, alpha' chain (C3 alpha chain without C3a); source: bought: Complement Technology, plasma-derived
T2 sequence (P01024 23-667, chain 1 of 2): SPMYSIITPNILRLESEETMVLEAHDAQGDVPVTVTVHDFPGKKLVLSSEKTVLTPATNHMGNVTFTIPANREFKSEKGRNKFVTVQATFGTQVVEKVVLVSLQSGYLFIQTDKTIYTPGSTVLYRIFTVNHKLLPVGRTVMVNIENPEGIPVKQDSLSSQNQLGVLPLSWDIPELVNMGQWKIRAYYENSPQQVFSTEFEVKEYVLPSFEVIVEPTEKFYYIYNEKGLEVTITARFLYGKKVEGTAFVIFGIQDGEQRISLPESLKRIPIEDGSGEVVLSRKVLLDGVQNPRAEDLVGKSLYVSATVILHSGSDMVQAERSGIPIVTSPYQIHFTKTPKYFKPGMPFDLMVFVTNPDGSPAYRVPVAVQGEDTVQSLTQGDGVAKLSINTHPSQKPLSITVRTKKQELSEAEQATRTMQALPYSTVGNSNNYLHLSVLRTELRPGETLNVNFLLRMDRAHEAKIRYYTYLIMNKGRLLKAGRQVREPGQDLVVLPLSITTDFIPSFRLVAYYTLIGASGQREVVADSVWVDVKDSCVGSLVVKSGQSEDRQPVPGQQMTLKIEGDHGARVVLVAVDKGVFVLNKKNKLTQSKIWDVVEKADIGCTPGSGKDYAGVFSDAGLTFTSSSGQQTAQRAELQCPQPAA
T2 sequence (P01024 749-1663, chain 2 of 2): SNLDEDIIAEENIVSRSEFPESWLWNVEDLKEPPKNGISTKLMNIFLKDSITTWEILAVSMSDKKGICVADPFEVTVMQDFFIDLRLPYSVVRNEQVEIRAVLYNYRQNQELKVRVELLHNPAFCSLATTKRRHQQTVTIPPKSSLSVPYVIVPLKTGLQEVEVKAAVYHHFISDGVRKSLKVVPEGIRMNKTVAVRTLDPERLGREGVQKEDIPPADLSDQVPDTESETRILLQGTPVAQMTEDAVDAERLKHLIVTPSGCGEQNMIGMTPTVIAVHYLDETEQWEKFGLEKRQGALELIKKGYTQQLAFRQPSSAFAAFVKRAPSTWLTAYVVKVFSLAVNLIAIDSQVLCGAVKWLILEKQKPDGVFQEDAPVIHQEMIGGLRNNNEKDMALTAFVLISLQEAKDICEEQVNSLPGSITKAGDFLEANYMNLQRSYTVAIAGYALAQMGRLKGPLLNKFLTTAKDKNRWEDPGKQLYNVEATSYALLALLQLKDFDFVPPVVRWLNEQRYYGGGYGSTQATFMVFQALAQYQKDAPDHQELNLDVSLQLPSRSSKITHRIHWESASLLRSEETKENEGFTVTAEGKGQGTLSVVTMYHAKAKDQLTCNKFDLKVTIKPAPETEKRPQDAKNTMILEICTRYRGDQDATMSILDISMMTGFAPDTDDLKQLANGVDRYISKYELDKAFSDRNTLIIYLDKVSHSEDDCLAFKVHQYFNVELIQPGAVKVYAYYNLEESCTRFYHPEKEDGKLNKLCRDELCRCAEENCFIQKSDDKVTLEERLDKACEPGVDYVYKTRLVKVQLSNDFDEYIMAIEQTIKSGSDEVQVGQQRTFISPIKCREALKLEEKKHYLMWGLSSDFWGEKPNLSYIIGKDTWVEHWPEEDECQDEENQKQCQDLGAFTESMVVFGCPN
As to the kind of experiment: SPR; His-tagged CSL040 or HuCR1(1971) captured on a Ni-NTA chip to 75-100 RU, C3b or C4b injected as analyte; Biacore T200, 37 °C; 10 mM Hepes, 150 mM NaCl, 0.1% bovine serum albumin, pH 7.3; 1:1 model with a term for mass transport. The following applies: both partners purified.

T1 sequence (P17927 42-1971): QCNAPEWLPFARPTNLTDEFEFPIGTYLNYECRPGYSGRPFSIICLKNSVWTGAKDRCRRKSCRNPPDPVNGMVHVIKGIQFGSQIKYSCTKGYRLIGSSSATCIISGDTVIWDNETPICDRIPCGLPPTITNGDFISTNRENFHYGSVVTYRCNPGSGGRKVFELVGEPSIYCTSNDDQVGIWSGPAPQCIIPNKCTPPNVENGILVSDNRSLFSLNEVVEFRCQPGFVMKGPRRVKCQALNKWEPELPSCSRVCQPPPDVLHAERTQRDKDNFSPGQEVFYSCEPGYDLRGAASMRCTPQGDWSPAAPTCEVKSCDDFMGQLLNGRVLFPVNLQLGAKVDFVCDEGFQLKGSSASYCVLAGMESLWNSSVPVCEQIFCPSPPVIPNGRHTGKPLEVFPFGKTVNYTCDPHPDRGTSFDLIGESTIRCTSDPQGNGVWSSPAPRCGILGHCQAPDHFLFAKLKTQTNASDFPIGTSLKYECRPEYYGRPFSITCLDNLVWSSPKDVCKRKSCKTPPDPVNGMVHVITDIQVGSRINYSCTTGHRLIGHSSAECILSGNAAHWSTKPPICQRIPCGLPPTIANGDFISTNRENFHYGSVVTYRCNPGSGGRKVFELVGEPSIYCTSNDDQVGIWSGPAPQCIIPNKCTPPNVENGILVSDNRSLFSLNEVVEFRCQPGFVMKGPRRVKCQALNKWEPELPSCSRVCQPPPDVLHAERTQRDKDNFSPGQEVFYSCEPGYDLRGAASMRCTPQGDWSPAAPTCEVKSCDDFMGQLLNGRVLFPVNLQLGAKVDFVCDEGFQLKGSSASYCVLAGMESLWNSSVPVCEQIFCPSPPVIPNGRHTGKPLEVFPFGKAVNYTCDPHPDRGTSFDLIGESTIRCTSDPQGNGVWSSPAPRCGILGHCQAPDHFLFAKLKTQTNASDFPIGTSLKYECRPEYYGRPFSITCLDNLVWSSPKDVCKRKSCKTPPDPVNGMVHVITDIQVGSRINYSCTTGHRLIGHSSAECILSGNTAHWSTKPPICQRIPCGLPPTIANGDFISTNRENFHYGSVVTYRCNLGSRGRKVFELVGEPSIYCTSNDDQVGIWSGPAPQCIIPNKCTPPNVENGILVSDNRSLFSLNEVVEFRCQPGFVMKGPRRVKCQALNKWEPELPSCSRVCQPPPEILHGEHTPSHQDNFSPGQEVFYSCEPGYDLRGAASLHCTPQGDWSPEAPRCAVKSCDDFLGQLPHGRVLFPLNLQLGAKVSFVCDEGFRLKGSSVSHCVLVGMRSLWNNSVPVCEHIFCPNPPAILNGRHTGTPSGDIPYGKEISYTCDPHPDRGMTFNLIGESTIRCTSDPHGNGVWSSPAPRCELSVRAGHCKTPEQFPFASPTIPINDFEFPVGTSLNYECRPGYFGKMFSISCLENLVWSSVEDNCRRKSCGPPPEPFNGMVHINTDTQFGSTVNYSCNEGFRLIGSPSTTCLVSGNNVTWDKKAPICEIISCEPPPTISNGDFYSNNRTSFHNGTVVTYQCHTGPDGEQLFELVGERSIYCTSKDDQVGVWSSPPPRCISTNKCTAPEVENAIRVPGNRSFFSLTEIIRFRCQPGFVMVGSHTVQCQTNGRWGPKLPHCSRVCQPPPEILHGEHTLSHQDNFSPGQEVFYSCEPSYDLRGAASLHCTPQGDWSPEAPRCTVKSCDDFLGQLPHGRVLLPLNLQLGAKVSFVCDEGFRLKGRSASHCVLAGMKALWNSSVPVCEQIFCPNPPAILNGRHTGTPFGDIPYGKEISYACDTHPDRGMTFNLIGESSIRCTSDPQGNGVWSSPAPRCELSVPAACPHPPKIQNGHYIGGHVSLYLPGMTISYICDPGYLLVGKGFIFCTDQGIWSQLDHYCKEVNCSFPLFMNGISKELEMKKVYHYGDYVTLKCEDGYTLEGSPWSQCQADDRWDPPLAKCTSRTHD

B1: plasma-derived human C4b (ligand)
chain 1: KPRLLLFSPSVVHLGVPLSVGVQLQDVPRGQVVKGSVFLRNPSRNNVPCSPKVDFTLSSERDFALLSLQVPLKDAKSCGLHQLLRGPEVQLVAHSPWLKDSLSRTTNIQGINLLFSSRRGHLFLQTDQPIYNPGQRVRYRVFALDQKMRPSTDTITVMVENSHGLRVRKKEVYMPSSIFQDDFVIPDISEPGTWKISARFSDGLESNSSTQFEVKKYVLPNFEVKITPGKPYILTVPGHLDEMQLDIQARYIYGKPVQGVAYVRFGLLDEDGKKTFFRGLESQTKLVNGQSHISLSKAEFQDALEKLNMGITDLQGLRLYVAAAIIESPGGEMEEAELTSWYFVSSPFSLDLSKTKRHLVPGAPFLLQALVREMSGSPASGIPVKVSATVSSPGSVPEVQDIQQNTDGSGQVSIPIIIPQTISELQLSVSAGSPHPAIARLTVAAPPSGGPGFLSIERPDSRPPRVGDTLNLNLRAVGSGATFSHYYYMILSRGQIVFMNREPKRTLTSVSVFVDHHLAPSFYFVAFYYHGDHPVANSLRVDVQAGACEGKLELSVDGAKQYRNGESVKLHLETDSLALVALGALDTALYAAGSKSHKPLNMGKVFEAMNSYDLGCGPGGGDSALQVFQAAGLAFSDGDQWTLSRKRLSCPKEKTT
chain 2: ALEILQEEDLIDEDDIPVRSFFPENWLWRVETVDRFQILTLWLPDSLTTWEIHGLSLSKTKGLCVATPVQLRVFREFHLHLRLPMSVRRFEQLELRPVLYNYLDKNLTVSVHVSPVEGLCLAGGGGLAQQVLVPAGSARPVAFSVVPTAAAAVSLKVVARGSFEFPVGDAVSKVLQIEKEGAIHREELVYELNPLDHRGRTLEIPGNSDPNMIPDGDFNSYVRVTASDPLDTLGSEGALSPGGVASLLRLPRGCGEQTMIYLAPTLAASRYLDKTEQWSTLPPETKDHAVDLIQKGYMRIQQFRKADGSYAAWLSRDSSTWLTAFVLKVLSLAQEQVGGSPEKLQETSNWLLSQQQADGSFQDPCPVLDRSMQGGLVGNDETVALTAFVTIALHHGLAVFQDEGAEPLKQRVEASISKANSFLGEKASAGLLGAHAAAITAYALTLTKAPVDLLGVAHNNLMAMAQETGDNLYWGSVTGSQSNAVSPTPAPRNPSDPMPQAPALWIETTAYALLHLLLHEGKAEMADQASAWLTRQGSFQGGFRSTQDTVIALDALSAYWIASHTTEERGLNVTLSSTGRNGFKSHALQLNNRQIRGLEEELQFSLGSKINVKVGGNSKGTLKVLRTYNVLDMKNTTCQDLQIEVTVKGHVEYTMEANEDYEDYEYDELPAKDDPDAPLQPVTPLQLFEG
chain 3: EAPKVVEEQESRVHYTVCIWRNGKVGLSGMAIADVTLLSGFHALRADLEKLTSLSDRYVSHFETEGPHVLLYFDSVPTSRECVGFEAVQEVPVGLVQPASATLYDYYNPERRCSVFYGAPSKSRLLATLCSAEVCQCAEGKCPRQRRALERGLQDEDGYRMKFACYYPRVEYGFQVKVLREDSRAAFRLFETKITQVLHFTKDVKAAANQMRNFLVRASCRLRLEPGKEYLIMGLDGATYDLEGHPQYLLDSNSWIEEMPSERLCRSTRQRAACAQLNDFLQEYGTQGCQV
notes: human complement C4, beta chain; human complement C4b, alpha' chain (C4 alpha chain without C4a); human complement C4, gamma chain; Plasma-derived C4b is likely a mixture of C4A and C4B forms; source: bought: Complement Technology, plasma-derived; copies: + +
As for B1, the Kd in assay [1] is about 4900 nM.

B2: HuCR1(1392)/CSL040, soluble human complement receptor 1 truncated at amino acid 1392 (LHR-A, LHR-B and LHR-C) (receptor)
chain: not shown
notes: signal peptide in the construct; human complement receptor 1 (HuCR1, CD35), endogenous signal peptide, ends at amino acid 1392 (LHR-A, LHR-B, LHR-C; lacks LHR-D); amino acid numbering based on Met + 1; cDNA GenBank NP_000564, codon optimised; N-glycosylated, highly sialylated; A version without the His-tag was also made, but the SPR used the His-tagged protein; also called LHR-ABC; not shown: …
With B2, in the assay with plasma-derived human C3b, the Kd amounted to 265 nM, the koff came out at 0.00654 s⁻¹ and the kon was 24800 M⁻¹ s⁻¹.
